tested on: Escherichia coli TOP10; experiment: shrunken log2 fold change of peptide-encoding DNA abundance (4.5 h post-induction vs induction); higher = less antimicrobial activity (less host growth inhibition); details: time post-induction: 4.5 h; library: site-saturation at positions 5, 18, 19, 20
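Also: peptides expressed intracellularly from a pBAD plasmid library in pooled LB shake-flask culture, induced with 0.3% L-arabinose, DNA abundance read by NGS, three biological replicates, DESeq2 with apeglm shrinkage.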

RRIRWRPPRLPRPRPRPTCYPRP and RRIRQRPPRLPRPRPRPRQLPRP are within 0.2 log units of each other in “shrunken log2 fold change” value: -0.0755 for the first, 0.0166 for the second.

Going from RRIRCRPPRLPRPRPRPCHPPRP to RRIRKRPPRLPRPRPRPMDNPRP, the “shrunken log2 fold change” value rises from -0.348 to 0.103.

RRIRERPPRLPRPRPRPCEYPRP and RRIRGRPPRLPRPRPRPLPYPRP are within 0.2 log units of each other in “shrunken log2 fold change” value: -0.0121 for the first, -0.086 for the second.

First: RRIRRRPPRLPRPRPRPTFQPRP
Second: RRIRRRPPRLPRPRPRPSVSPRP
The “shrunken log2 fold change” value of the first is higher: 0.204 for the first, -0.0175 for the second.

RRIRVRPPRLPRPRPRPELFPRP and RRIRTRPPRLPRPRPRPEFCPRP are within 0.2 log units of each other in “shrunken log2 fold change” value: 0.181 for the first, 0.146 for the second.

Compared with RRIRQRPPRLPRPRPRPCIMPRP, RRIRNRPPRLPRPRPRPWKLPRP is higher in “shrunken log2 fold change” value: -0.748 for the first, -0.0134 for the second.

RRIRKRPPRLPRPRPRPTWYPRP and RRIRRRPPRLPRPRPRPQDKPRP are within 0.2 log units of each other in “shrunken log2 fold change” value: -0.0991 for the first, -0.289 for the second.

First: RRIRWRPPRLPRPRPRPHKGPRP
Second: RRIRLRPPRLPRPRPRPPNQPRP
The “shrunken log2 fold change” value of the first is lower: -0.185 for the first, 0.0881 for the second.

Compared with RRIRQRPPRLPRPRPRPCRYPRP, RRIRIRPPRLPRPRPRPAFIPRP is lower in “shrunken log2 fold change” value: -0.167 for the first, -0.509 for the second.

Going from RRIRDRPPRLPRPRPRPWNAPRP to RRIRTRPPRLPRPRPRPQQGPRP, the “shrunken log2 fold change” value falls from 0.0296 to -0.238.

RRIRSRPPRLPRPRPRPLDIPRP and RRIRARPPRLPRPRPRPQYVPRP are within 0.2 log units of each other in “shrunken log2 fold change” value: 0.00915 for the first, -0.116 for the second.

Going from RRIRKRPPRLPRPRPRPENHPRP to RRIRYRPPRLPRPRPRPVDEPRP, the “shrunken log2 fold change” value falls from -0.229 to -0.554.

RRIRPRPPRLPRPRPRPPFQPRP and RRIRPRPPRLPRPRPRPQDIPRP are within 0.2 log units of each other in “shrunken log2 fold change” value: 0.119 for the first, -0.0806 for the second.

RRIRSRPPRLPRPRPRPSQTPRP and RRIRNRPPRLPRPRPRPWMDPRP are within 0.2 log units of each other in “shrunken log2 fold change” value: -0.128 for the first, -0.165 for the second.

First: RRIRIRPPRLPRPRPRPAPQPRP
Second: RRIRYRPPRLPRPRPRPDLNPRP
The “shrunken log2 fold change” value of the first is higher: 0.363 for the first, -0.0755 for the second.

RRIRTRPPRLPRPRPRPHDHPRP and RRIRSRPPRLPRPRPRPIYEPRP are within 0.2 log units of each other in “shrunken log2 fold change” value: -0.257 for the first, -0.134 for the second.

RRIRLRPPRLPRPRPRPHMMPRP and RRIRLRPPRLPRPRPRPMQYPRP are within 0.2 log units of each other in “shrunken log2 fold change” value: -0.135 for the first, -0.208 for the second.

First: RRIRTRPPRLPRPRPRPMTSPRP
Second: RRIRKRPPRLPRPRPRPGMRPRP
The “shrunken log2 fold change” value of the first is lower: -0.168 for the first, 0.926 for the second.

Going from RRIRRRPPRLPRPRPRPTIVPRP to RRIRPRPPRLPRPRPRPRLHPRP, the “shrunken log2 fold change” value rises from -0.111 to 0.624.

First: RRIRMRPPRLPRPRPRPDCTPRP
Second: RRIRNRPPRLPRPRPRPLFDPRP
The “shrunken log2 fold change” value of the first is higher: 2.27 for the first, -0.298 for the second.

RRIRVRPPRLPRPRPRPHLQPRP and RRIRARPPRLPRPRPRPKLPPRP are within 0.2 log units of each other in “shrunken log2 fold change” value: 0.14 for the first, 0.184 for the second.

Compared with RRIRIRPPRLPRPRPRPRCPPRP, RRIRYRPPRLPRPRPRPKDWPRP is lower in “shrunken log2 fold change” value: 0.0321 for the first, -0.176 for the second.

First: RRIRQRPPRLPRPRPRPINFPRP
Second: RRIRSRPPRLPRPRPRPRACPRP
The “shrunken log2 fold change” value of the first is lower: 0.0669 for the first, 0.403 for the second.

First: RRIRMRPPRLPRPRPRPKDFPRP
Second: RRIRWRPPRLPRPRPRPKKSPRP
The “shrunken log2 fold change” value of the first is lower: -0.025 for the first, 0.395 for the second.

RRIRWRPPRLPRPRPRPIQIPRP and RRIRIRPPRLPRPRPRPKGMPRP are within 0.2 log units of each other in “shrunken log2 fold change” value: -0.378 for the first, -0.214 for the second.

Going from RRIRGRPPRLPRPRPRPGSGPRP to RRIRQRPPRLPRPRPRPCKDPRP, the “shrunken log2 fold change” value falls from 0.808 to -0.294.

First: RRIRLRPPRLPRPRPRPIGPPRP
Second: RRIRTRPPRLPRPRPRPSFIPRP
The “shrunken log2 fold change” value of the first is higher: 0.0835 for the first, -0.761 for the second.

First: RRIRCRPPRLPRPRPRPRCWPRP
Second: RRIRKRPPRLPRPRPRPAGEPRP
The “shrunken log2 fold change” value of the first is higher: 0.502 for the first, 0.0321 for the second.

Going from RRIRVRPPRLPRPRPRPRWVPRP to RRIRKRPPRLPRPRPRPKDGPRP, the “shrunken log2 fold change” value falls from 0.309 to 0.0893.

Going from RRIRVRPPRLPRPRPRPSIVPRP to RRIRLRPPRLPRPRPRPTSLPRP, the “shrunken log2 fold change” value rises from -0.364 to -0.112.

Compared with RRIRVRPPRLPRPRPRPHVVPRP, RRIRTRPPRLPRPRPRPHYLPRP is higher in “shrunken log2 fold change” value: -0.479 for the first, -0.194 for the second.

Going from RRIRGRPPRLPRPRPRPAPFPRP to RRIRMRPPRLPRPRPRPMFSPRP, the “shrunken log2 fold change” value falls from 0.722 to -0.125.

Going from RRIRGRPPRLPRPRPRPSTDPRP to RRIRIRPPRLPRPRPRPRYTPRP, the “shrunken log2 fold change” value falls from 0.899 to -0.156.

Compared with RRIRCRPPRLPRPRPRPDTGPRP, RRIRGRPPRLPRPRPRPIPKPRP is higher in “shrunken log2 fold change” value: -0.879 for the first, -0.117 for the second.

Going from RRIRNRPPRLPRPRPRPDFCPRP to RRIRHRPPRLPRPRPRPADYPRP, the “shrunken log2 fold change” value falls from 0.0953 to -0.291.

RRIRLRPPRLPRPRPRPMIQPRP and RRIRWRPPRLPRPRPRPLGMPRP are within 0.2 log units of each other in “shrunken log2 fold change” value: -0.139 for the first, -0.156 for the second.

RRIRYRPPRLPRPRPRPRQCPRP and RRIRHRPPRLPRPRPRPTAPPRP are within 0.2 log units of each other in “shrunken log2 fold change” value: -0.0146 for the first, 0.184 for the second.

Compared with RRIRNRPPRLPRPRPRPNHTPRP, RRIRGRPPRLPRPRPRPLLRPRP is higher in “shrunken log2 fold change” value: -0.773 for the first, 0.485 for the second.

Going from RRIRERPPRLPRPRPRPCDKPRP to RRIRWRPPRLPRPRPRPKAGPRP, the “shrunken log2 fold change” value rises from 0.0148 to 0.538.

First: RRIRVRPPRLPRPRPRPLLNPRP
Second: RRIRCRPPRLPRPRPRPSMEPRP
The “shrunken log2 fold change” value of the first is higher: 0.159 for the first, -0.344 for the second.

Compared with RRIRKRPPRLPRPRPRPVSCPRP, RRIRMRPPRLPRPRPRPPFEPRP is higher in “shrunken log2 fold change” value: 0.129 for the first, 0.492 for the second.

First: RRIRLRPPRLPRPRPRPESAPRP
Second: RRIRERPPRLPRPRPRPCEKPRP
The “shrunken log2 fold change” value of the first is higher: 0.228 for the first, 0.0102 for the second.

Compared with RRIRPRPPRLPRPRPRPRDRPRP, RRIRRRPPRLPRPRPRPNHPPRP is lower in “shrunken log2 fold change” value: 0.18 for the first, -0.0297 for the second.

First: RRIRPRPPRLPRPRPRPKNEPRP
Second: RRIRNRPPRLPRPRPRPNHYPRP
The “shrunken log2 fold change” value of the first is higher: -0.119 for the first, -0.885 for the second.

RRIRYRPPRLPRPRPRPGTTPRP and RRIRWRPPRLPRPRPRPMKRPRP are within 0.2 log units of each other in “shrunken log2 fold change” value: -0.0671 for the first, 0.0121 for the second.

RRIRARPPRLPRPRPRPCPFPRP and RRIRPRPPRLPRPRPRPFRQPRP are within 0.2 log units of each other in “shrunken log2 fold change” value: -0.154 for the first, -0.00634 for the second.

Going from RRIRFRPPRLPRPRPRPIKIPRP to RRIRARPPRLPRPRPRPHPVPRP, the “shrunken log2 fold change” value rises from -0.539 to 0.277.

RRIRPRPPRLPRPRPRPQSLPRP and RRIRWRPPRLPRPRPRPMHMPRP are within 0.2 log units of each other in “shrunken log2 fold change” value: -0.288 for the first, -0.287 for the second.

Compared with RRIRARPPRLPRPRPRPLIPPRP, RRIRIRPPRLPRPRPRPGFQPRP is lower in “shrunken log2 fold change” value: 0.449 for the first, -0.106 for the second.

RRIRNRPPRLPRPRPRPFFFPRP and RRIRWRPPRLPRPRPRPKKLPRP are within 0.2 log units of each other in “shrunken log2 fold change” value: 0.0988 for the first, -0.0343 for the second.

Going from RRIRPRPPRLPRPRPRPFRWPRP to RRIRMRPPRLPRPRPRPRDTPRP, the “shrunken log2 fold change” value rises from -0.0528 to 0.964.

First: RRIRFRPPRLPRPRPRPASTPRP
Second: RRIRGRPPRLPRPRPRPDAPPRP
The “shrunken log2 fold change” value of the first is lower: -0.0365 for the first, 1.9 for the second.

First: RRIRARPPRLPRPRPRPAPVPRP
Second: RRIRPRPPRLPRPRPRPTSMPRP
The “shrunken log2 fold change” value of the first is higher: 0.627 for the first, -0.0129 for the second.

RRIRKRPPRLPRPRPRPWNVPRP and RRIRCRPPRLPRPRPRPDGRPRP are within 0.2 log units of each other in “shrunken log2 fold change” value: 0.0194 for the first, 0.00474 for the second.

In the case of RRIRQRPPRLPRPRPRPWKWPRP, the “shrunken log2 fold change” value is reported as -0.299.
